Measured values: patent publication US20240352438A1, “MEANS AND METHODS FOR DETOXIFYING OCHRATOXIN A” (DSM Austria GmbH, priority 2021, published 2024)
Changes are numbered by the printed parent chain.

B1: 51 (protein)
chain: MTTRTRILTAFLSLLAANACAADAAPAAPHTVVLRAARMFDGASGKLVDHPQLTIVGNKIVRIAQGDKAEVPAGAEVVDLGDATLLPGFIDAHVHLSGQSSDNWYGDFFDNMMRFPAEQALYGAYYARITLEAGFTSVRDVGSTDWVALGLRNAIDAGKVPGPRMLVSNYGVGSTGGHADQDPIPPHKLPLAGPLQGVCNGPEECRAAVRYQIKYGANVIKFMPSGGVLSLSDPVDAPELSQDEMNAVIGESHAWGRKVAAHAHGDKAAKMAVAAGVDSIEHGSFIEDDTLRAMKAKNVYLVPTISAIAHVEEKIGTFPPVIAEKGRAAAAHLRQTFRHAVQIGVPIALGTDAGVGAHGSNAREFRYMVENGLTPAQALLAGTANAARLLGTFDRVGTLEAGKLADVVAVPGNPIADITVTERPLFVMKDGVVVRRDAVR
modifications: exemplary polypeptide
B2: 52 (protein)
chain: B1 chain with G171A, P183G
modifications: exemplary polypeptide
B3: 53 (protein)
chain: B1 chain with G171A, P183S
modifications: exemplary polypeptide
B4: 54 (protein)
chain: B1 chain with G171A, V228A
modifications: exemplary polypeptide
B5: 55 (protein)
chain: B1 chain with G171A, L229V
modifications: exemplary polypeptide
B6: 56 (protein)
chain: B1 chain with G171A, L229M
modifications: exemplary polypeptide
B7: 57 (protein)
chain: B1 chain with G171A, A307S
modifications: exemplary polypeptide
B8: 58 (protein)
chain: B1 chain with G171A, A307G
modifications: exemplary polypeptide
B9: 59 (protein)
chain: B1 chain with G171A, I308V
modifications: exemplary polypeptide
B10: 60 (protein)
chain: B1 chain with G171A, V311T
modifications: exemplary polypeptide
B11: 61 (protein)
chain: B1 chain with G171A, V355T
modifications: exemplary polypeptide
B12: 62 (protein)
chain: B1 chain with G171A, V235P
modifications: exemplary polypeptide
B13: 63 (protein)
chain: B1 chain with G171A, E239Q
modifications: exemplary polypeptide
B14: 64 (protein)
chain: B1 chain with S143E, G171A
modifications: exemplary polypeptide
B15: 66 (protein)
chain: B1 chain with G171A, V311A
modifications: exemplary polypeptide
B16: 67 (protein)
chain: B1 chain with G171A, V355A
modifications: exemplary polypeptide
B17: 68 (protein)
chain: B1 chain with G171A, A357P
modifications: exemplary polypeptide
B18: 69 (protein)
chain: B1 chain with G171A, Q181M
modifications: exemplary polypeptide
B19: 70 (protein)
chain: B1 chain with G171A, Q181L
modifications: exemplary polypeptide
B20: 71 (protein)
chain: B1 chain with G171A, H264Q
modifications: exemplary polypeptide
B21: 72 (protein)
chain: B1 chain with G171A, M223C
modifications: exemplary polypeptide
B22: 73 (protein)
chain: B1 chain with G171A, M223A
modifications: exemplary polypeptide
B23: 77 (protein)
chain: B1 chain with G171A, A307G, V311A
modifications: exemplary polypeptide
B24: 80 (protein)
chain: B1 chain with G171A, A307G, V355A
modifications: exemplary polypeptide
B25: 48 (protein)
chain: B1 chain with F109A, G171A
modifications: exemplary polypeptide

Test: OTA detoxification activity assay (specific activity, fluorescence reduction ex/em 390/450 nm)
Type: biochemical
Settings: pH 6.0; SEQ ID NO: 1 = 100%
In short: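 Recombinant enzyme preparation with 200 ng/mL OTA in 100 mM sodium phosphate, at pH 6.0 and pH 7.5, 37° C. Degradation followed as the fall in fluorescence at ex/em 390/450 nm. Specific activity taken from the initial linear slope; one unit degrades 1 μmol OTA per min at a starting OTA of […].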

Molecule | Specific OTA detoxification activities in % compared to the enzyme of SEQ ID NO: 1, pH 6.0 [%]
B1 | 46
B2 | 16
B3 | 64
B4 | 33
B5 | 27
B6 | 32
B7 | 15
B8 | 6
B9 | 69
B10 | 23
B11 | 15
B12 | 35
B13 | 43
B14 | 36
B15 | 15
B16 | 51
B17 | 70
B18 | 102
B19 | 80
B20 | 32
B21 | 34
B22 | 20
B23 | 5
B24 | 7
B25 | 54

Same assay, conditions: pH 7.5; SEQ ID NO: 1 = 100%

Molecule | Specific OTA detoxification activities in % compared to the enzyme of SEQ ID NO: 1, pH 7.5 [%]
B1 | 140
B2 | 44
B3 | 100
B4 | 40
B5 | 54
B6 | 87
B7 | 16
B8 | 8
B9 | 333
B10 | 61
B11 | 34
B12 | 26
B13 | 112
B14 | 146
B15 | 15
B16 | 28
B17 | 67
B18 | 75
B19 | 77
B20 | 17
B21 | 46
B22 | 23
B23 | 3
B24 | 3
B25 | 102

Test: Thermostability assay: residual OTA detoxification activity after 10 min incubation at 45-99° C. (T50)
Type: physicochemical
Settings: 0.1 mg/mL protein in 20 mM Tris-HCl pH 7.5, residual OTA detoxification activity relative to 4° C. reference aliquot
In short: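 T50 marks the temperature range at which half the starting OTA-detoxifying activity is lost, versus an unheated 4 °C reference. Samples were 0.1 mg/mL purified protein in 20 mM Tris-HCl pH 7.5, exposed for 10 min to 45, 55, 65, 75, 80, 85, 90, 95 or 99 °C.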

Molecule | T50 (temperature at which 50% of the initial activity was maintained)
B1 | 68-70 °C
B2 | <63.2 °C
B3 | <63.2 °C
B4 | <63.2 °C
B5 | 64-66 °C
B6 | 66-68 °C
B7 | 68-70 °C
B8 | 72 °C
B9 | 68-70 °C
B10 | 66-68 °C
B11 | 66-68 °C
B12 | 63-64 °C
B13 | 72-74 °C
B14 | 63-64 °C
B15 | 65.3-66.9 °C
B16 | <63.2 °C
B17 | 70.7-72.6 °C
B18 | <63.2 °C
B19 | <63.2 °C
B20 | 70.7-72.6 °C
B21 | 74.4-77.0 °C
B22 | 74.4-77.0 °C
B23 | 65.3-66.9 °C
B24 | 64.0-65.3 °C
B25 | <63.2 °C
